Reference: paper doi:10.1101/2024.09.18.613619 (bioRxiv, 2024)

Target: T1, Rpn8 (Saccharomyces cerevisiae proteasome lid subunit) (S. cerevisiae, UniProt Q08723 1-338)
T1 sequence (looked up): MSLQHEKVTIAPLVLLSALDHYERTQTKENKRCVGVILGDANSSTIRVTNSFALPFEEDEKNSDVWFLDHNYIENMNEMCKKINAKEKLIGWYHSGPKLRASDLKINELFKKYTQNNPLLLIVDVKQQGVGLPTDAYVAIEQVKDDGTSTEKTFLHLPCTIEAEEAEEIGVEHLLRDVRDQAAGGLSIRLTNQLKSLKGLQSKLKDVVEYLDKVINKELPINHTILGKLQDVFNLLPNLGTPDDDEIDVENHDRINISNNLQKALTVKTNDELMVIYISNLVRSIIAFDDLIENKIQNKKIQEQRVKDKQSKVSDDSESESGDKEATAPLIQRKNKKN
Assay: two-hybrid

B1: Rpn11 (Saccharomyces cerevisiae proteasome lid subunit) (natural protein, S. cerevisiae, UniProt P43588 1-306, looked up)
chain: MERLQRLMMNSKVGSADTGRDDTKETVYISSIALLKMLKHGRAGVPMEVMGLMLGEFVDDYTVNVVDVFAMPQSGTGVSVEAVDDVFQAKMMDMLKQTGRDQMVVGWYHSHPGFGCWLSSVDVNTQKSFEQLNSRAVAVVVDPIQSVKGKVVIDAFRLIDTGALINNLEPRQTTSNTGLLNKANIQALIHGLNRHYYSLNIDYHKTAKETKMLMNLHKEQWQSGLKMYDYEEKEESNLAATKSMVKIAEQYSKRIEEEKELTEEELKTRYVGRQDPKKHLSETADETLENNIVSVLTAGVNSVAIK
In the case of B1, the “β-galactosidase activity relative to the GlRpn8-GlRpn11 pair” value is reported as roughly 2 fold.
